Experimental data reported in patent EP1832653A1.

Molecular target: monoclonal antibody M75 (MAb M75), secreted from the hybridoma VU-M75, ATCC HB 11128
Assay: competition ELISA: peptide in solution against immobilized GST-MN for M75

- IC50: 1 ng/mL
B1: oligopeptide … (aa 51-72) [SEQ ID NO: 104] (peptide)
peptide: GGSSGEDDPLGEEDLPSEEDSP
